These are literature values, as cited in PMC5176006.

pKd: −log10 of the molar value.

For the series, the target named is IscU (Escherichia coli) (UniProt P0ACD4).
Sequence of UniProt P0ACD4 (P0ACD4 whole entry): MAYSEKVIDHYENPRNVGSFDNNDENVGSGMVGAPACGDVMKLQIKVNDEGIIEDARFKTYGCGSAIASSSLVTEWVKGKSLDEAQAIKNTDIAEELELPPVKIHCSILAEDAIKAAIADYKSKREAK

On to IscS (from UniProt P0A6B7), for which the pKd was 6.00.
